Test results taken from patent US20240124585A1 (SUTRO BIOPHARMA, published 2024).
Changes are numbered by the printed parent chain. Numbers in names are those of the source.

T1: cynomolgus CD3 epsilon (cynomolgus monkey, UniProt Q95LI5 22-117, limits assumed)
T1 construct: Recombinant protein; also called cyno CD3E
T1 sequence: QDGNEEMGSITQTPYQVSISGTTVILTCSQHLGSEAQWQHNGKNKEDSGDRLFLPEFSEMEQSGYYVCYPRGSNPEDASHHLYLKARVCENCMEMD

B1: 2037-B10_Hc-F29D (antibody, human IgG1, lambda, V domains shown)
VH: EVQLVESGGGLVKPGGSLRLSCAASGFTDNKYAMNWVRQAPGKGLEWVARIRTKYNNYATYYADSVKDRFTISRDDSKNTAYLQMNSLKTEDTAVYYCVRHGNFGNSYISYWAYWGQGTPVTVSS
VL: QTVVTQEPSLTVSPGGTVTLTCGSSTGAVTSGYYPNWLQQKPGQAPRGLIGGTKFLAPGTPARFSGSLLGGKAALTLSGVQPEDEAEYYCALWYSNRWVFGGGTQLTVTG
notes: human IgG1, lambda; also called SRP 2037 F29D; 2037-B10_VH-F29D
B2: 2037-B10_Hc-F104D (antibody, human IgG1, lambda, V domains shown)
VH: B1 VH with D29F, F104D
VL: B1 VL
notes: human IgG1, lambda; also called SRP 2037 F104D; 2037-B10_VH-F104D
B3: SRP 2037-B10 Y55D/LC6 (antibody, human IgG1, kappa, V domains shown)
VH: B1 VH with D29F, Y55D
VL: DIQMTQSPSSLSASVGDRVTITCGSSTGAVTSGYYPNWLQQKPGQAPRGLIGGTKFLAPGVPSRFSGSLSGGKATLTISSLQPEDFATYYCALWYSNRWVFGGGTKVEIKR
notes: human IgG1, kappa
B4: 2037-B10_Hc-S107D (antibody, human IgG1, lambda, V domains shown)
VH: B1 VH with D29F, S107D
VL: B1 VL
notes: human IgG1, lambda; also called SRP 2037 S107D; 2037-B10_VH-S107D
B5: 2037-B10_Hc-Y61D (antibody, human IgG1, lambda, V domains shown)
VH: B1 VH with D29F, Y61D
VL: B1 VL
notes: human IgG1, lambda; also called SRP 2037 Y61D; 2037-B10_VH-Y61D
B6: SRP 2037-B10 Y61D/LC6 (antibody, human IgG1, kappa, V domains shown)
VH: B1 VH with D29F, Y61D
VL: B3 VL
notes: human IgG1, kappa
B7: SRP 2037-B10 F104D/LC6 (antibody, human IgG1, kappa, V domains shown)
VH: B1 VH with D29F, F104D
VL: B3 VL
notes: human IgG1, kappa
B8: 2037-B10_Hc-Y55D (antibody, human IgG1, lambda, V domains shown)
VH: B1 VH with D29F, Y55D
VL: B1 VL
notes: human IgG1, lambda; also called SRP 2037 Y55D; 2037-B10_VH-Y55D
B9: SRP 2037-B10 F29D/LC6 (antibody, human IgG1, kappa, V domains shown)
VH: B1 VH
VL: B3 VL
notes: human IgG1, kappa
B10: SRP 2037-B10 S107D/LC6 (antibody, human IgG1, kappa, V domains shown)
VH: B1 VH with D29F, S107D
VL: B3 VL
notes: human IgG1, kappa; also called 2037-B10 IgG S107D Lc6
B11: 2037-B10_Lc-R97D (antibody, V domains shown)
VH: not shown
VL: B1 VL with R97D
notes: human IgG1, lambda; also called SRP 2037 R97D; 2037-B10 VL-R97D
B12: 2037-B10_Lc-W93D (antibody, V domains shown)
VH: not shown
VL: B1 VL with W93D
notes: human IgG1, lambda; also called SRP 2037 W93D; 2037-B10 VL-W93D
B13: SRP 2037-B10 Y55D/R97D (antibody, human IgG1, lambda, V domains shown)
VH: B1 VH with D29F, Y55D
VL: B1 VL with R97D
notes: human IgG1, lambda
B14: SRP 2037-B10 F104D/R97D (antibody, human IgG1, lambda, V domains shown)
VH: B1 VH with D29F, F104D
VL: B1 VL with R97D
notes: human IgG1, lambda
B15: SRP 2037-B10 S107D/R97D (antibody, human IgG1, lambda, V domains shown)
VH: B1 VH with D29F, S107D
VL: B1 VL with R97D
notes: human IgG1, lambda
B16: SRP 2037-B10 Y61D/R97D (antibody, human IgG1, lambda, V domains shown)
VH: B1 VH with D29F, Y61D
VL: B1 VL with R97D
notes: human IgG1, lambda
B17: SRP 2037-B10 Y61D/LC5 (antibody, human IgG1, kappa, V domains shown)
VH: B1 VH with D29F, Y61D
VL: DTQVTQSPSLSASVGDRVTITCGSSTGAVTSGYYPNWLQQKPGQAPRGLIGGTKFLAPGVPSRFSGSGSGTDFTLTISSLQPEDFATYYCALWYSNRWVFGGGTKVEIKR
notes: human IgG1, kappa
B18: SRP 2037-B10 S107D/LC5 (antibody, human IgG1, kappa, V domains shown)
VH: B1 VH with D29F, S107D
VL: B17 VL
notes: human IgG1, kappa
B19: SRP 2037-B10 F104D/LC5 (antibody, human IgG1, kappa, V domains shown)
VH: B1 VH with D29F, F104D
VL: B17 VL
notes: human IgG1, kappa
B20: SRP 2037-B10 Y55D/LC5 (antibody, human IgG1, kappa, V domains shown)
VH: B1 VH with D29F, Y55D
VL: B17 VL
notes: human IgG1, kappa

Molecular target: T1, cynomolgus CD3 epsilon
Experiment: SPR (Biacore), antibody captured, cynomolgus CD3 epsilon analyte

Row | Binder | Kd [nM] | koff [s⁻¹] | kon [M⁻¹ s⁻¹]
1 | B1 | 2.69 | 0.000573 | 213000
2 | B2 | 6.45 | 0.00107 | 166000
3 | B3 | 2.09 | 0.000945 | 451000
4 | B4 | 1.64 | 0.00034 | 207000
5 | B5 | 1.73 | 0.00123 | 709000
6 | B6 | 3.99 | 0.00154 | 387000
7 | B7 | 14.9 | 0.00165 | 111000
8 | B8 | 1 | 0.00058 | 579000
9 | B9 | 5.87 | 0.00121 | 206000
10 | B10 | 3.41 | 0.000558 | 164000

Molecular target: T2, human CD3 on T-cell lines (CD3-expressing Jurkat cells; HUT78 cells) (human, UniProt P07766 23-207)
T2 construct: On cells it stands in the CD3/TCR complex
T2 sequence (P07766 23-207 limits assumed): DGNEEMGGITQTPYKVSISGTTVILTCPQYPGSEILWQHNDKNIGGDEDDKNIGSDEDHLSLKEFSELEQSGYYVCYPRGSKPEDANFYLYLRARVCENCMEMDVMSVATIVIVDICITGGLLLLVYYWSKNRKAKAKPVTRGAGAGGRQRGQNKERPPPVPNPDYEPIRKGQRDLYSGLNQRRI
Experiment: flow cytometry, HUT78 cells

Row | Binder | Bmax (MFI) | Kd [nM]
11 | B1 | 1080 | 1.87
12 | B2 | 617 | 1.72
13 | B11 | 953 | 0.58
14 | B4 | 1060 | 1.72
15 | B5 | 689 | 0.32
16 | B8 | 544 | 0.27
17 | B12 | 88 | 21.9

Molecular target: T3, human CD3 epsilon (Acro Cat #CDE-H5223) (human, UniProt P07766 23-126)
T3 construct: Bought recombinant protein; also called rhCD3E
T3 sequence (P07766 23-126 limits assumed): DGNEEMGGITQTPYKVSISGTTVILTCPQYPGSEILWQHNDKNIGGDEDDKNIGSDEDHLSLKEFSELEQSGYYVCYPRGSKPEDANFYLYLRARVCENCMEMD
Experiment: SPR (Biacore), antibody captured, human CD3 epsilon analyte
Experimental: (§1) Anti-Fab or anti-Fc polyclonal antibodies were immobilized onto a CM5 chip (GE Life Sciences) using amine coupling chemistry (from Amine Coupling Kit, GE Life Sciences). The immobilization steps were carried out at a flow rate of 25 μl/min in 1×HBS-EP+ buffer (GE Life Sciences; 10× Stock diluted before use). The sensor surfaces were activated for 7 min with a mixture of NHS (0.05 M) and EDC (0.2 M). The Anti-Fab or Anti-Fc antibodies were injected over all 4 flow cells at a concentration of 25 μg/mL in 10 mM sodium acetate, pH 4.5, for 7 min. Ethanolamine (1 M, pH 8.5) was injected for 7 min to block any remaining activated groups.
(§2) Off-rate and kinetic binding experiments were performed at 25° C. using 1×HBS-EP+ buffer. Test and control antibodies were injected over the anti-Fab or anti-Fc surface at concentrations of 5-10 μg/mL for 12 seconds at a flow rate of 10 μL/min on flow cells 2, 3 and 4, followed by a buffer wash for 30 seconds at the same flow rate. […] After capturing ligand (antibody) on the anti-Fc or anti-Fab surface, the analyte (human CD3 epsilon, Acro Cat #CDE-H5223) was bound for 180 seconds, followed by a 600 second dissociation phase at a flow rate of 50 μL/min. Between each ligand capture and analyte binding cycle, regeneration was carried out using two injections of 10 mM Glycine pH 2.0 for 30 seconds at 30 μL/min, followed by a 30 second buffer wash step.
(§3) The data was fit with the Biacore T200 Evaluation software, using a 1-1 Langmuir binding model. KD (affinity, nM) was determined as a ratio of the kinetic rate constants calculated from the fits of the association and dissociation phases.

Row | Binder | Kd [nM] | koff [s⁻¹] | kon [M⁻¹ s⁻¹]
18 | B1 | 11 | 0.000453 | 41200
19 | B2 | 3.38 | 0.000241 | 71200
20 | B11 | 1.49 | 0.000257 | 172000
21 | B13 | 5.07 | 0.000441 | 87000
22 | B3 | 3.89 | 0.000392 | 101000
23 | B4 | 5.06 | 0.00041 | 81000
24 | B5 | 3.42 | 0.000379 | 111000
25 | B14 | 6.99 | 0.000115 | 16400
26 | B6 | 3.63 | 0.000369 | 102000
27 | B7 | 3.7 | 0.000374 | 101000
28 | B15 | 15.8 | 0.000474 | 30100
29 | B8 | 2.45 | 0.000277 | 113000
30 | B9 | 18.5 | 0.000749 | 40500
31 | B10 | 8.62 | 0.000459 | 53200
32 | B16 | 3.91 | 0.00029 | 74000

Molecular target: T3, human CD3 epsilon (Acro Cat #CDE-H5223)
Experiment: as above
Remark: another data set of the same source
Experimental: as §1, §2, §3

Row | Binder | Kd [nM] | koff [s⁻¹] | kon [M⁻¹ s⁻¹]
33 | B1 | 2.36 | 0.000491 | 208000
34 | B2 | 7.82 | 0.000631 | 80700
35 | B4 | 1.47 | 0.000215 | 146000
36 | B5 | 1.84 | 0.000591 | 321000
37 | B8 | 1.31 | 0.000372 | 284000
38 | B12 | – | – | 7720

Molecular target: T2, human CD3 on T-cell lines …
Experiment: flow cytometry, HUT78 cells
Remark: another data set of the same source

Row | Binder | HUT78 Bmax | Kd [nM]
39 | B2 | 1200 | 23
40 | B11 | 2080 | 2.93
41 | B13 | 1190 | 62.4
42 | B3 | 1250 | 6.35
43 | B4 | 1630 | 15.6
44 | B5 | 804 | 18.8
45 | B17 | 772 | 312
46 | B14 | 2710 | 126
47 | B6 | 737 | 6.61
48 | B7 | 760 | 24.6
49 | B18 | 404 | 86.4
50 | B15 | 1800 | 38.1
51 | B8 | 1270 | 9.36
52 | B9 | 1040 | 3.72
53 | B19 | 523 | 226
54 | B10 | 1550 | 17.3
55 | B20 | 442 | 174
56 | B16 | 2000 | 121
